Reference: patent US7166426
“And” between values parts separate entries of the source, which are not always exact repeats. Equal values may be shown once.

Key:
[1] = target: NS3/4a conformational epitope with Thr to Pro and Ser to Ile substitutions (hepatitis C virus, HCV-1 (HCV1a)) (UniProt P26664); assay: ELISA, antigen coated on microtiter plate, negative control
[2] = target: c200 antigen; assay: as above
[3] = target: denatured NS3/4a (hepatitis C virus, HCV-1 (HCV1a)) (UniProt P26664); assay: as above
[4] = target: NS3/4a conformational epitope with Thr to Pro and Ser to Ile substitutions (hepatitis C virus, HCV-1 (HCV1a)) (UniProt P26664); assay: ELISA, antigen coated on microtiter plate, average of the negative controls
[5] = target: c200 antigen; assay: as above
[6] = target: denatured NS3/4a (hepatitis C virus, HCV-1 (HCV1a)) (UniProt P26664); assay: as above

Substance: HCV 3.0 Controls, negative control
- OD [1]: 0.023 OD and 0.027 OD and 0.021 OD
- OD [2]: 0.008 OD and 0.007 OD and 0.005 OD
- OD [3]: 0.024 OD and 0.017 OD
- OD (average of Neg. Cont.) [4]: 0.024 OD
- OD (average of Neg. Cont.) [5]: 0.007 OD
- OD (average of Neg. Cont.) [6]: 0.022 OD
